These results are taken from paper PMC4450493, “Binding of undamaged double stranded DNA to vaccinia virus uracil-DNA Glycosylase”.

This data set has as its target D4 (vaccinia virus uracil-DNA glycosylase, tfD4) (Vaccinia virus, UniProt P04303 1-218). The data set can be described thus: X-ray crystallography (2.89 A); undamaged DNA without uracil; glycerol in active sites; no A20. The settings on record: protein: recombinant; tags: His6 tag cleaved; three vector-encoded residues GSH remain at N-terminus; chain copies: 2; blunt; palindromic, two copies of the same strand.

B1: self-complementary 12mer dsDNA (dsDNA)
DNA 1: GCAAACGTTTGC
DNA 2: GCAAACGTTTGC
Take B1: the binding result was “binds”.
